In PMC3433420, “Comprehensive Binary Interaction Mapping of SH2 Domains via Fluorescence Polarization Reveals Novel Functional Diversification of ErbB Receptors” (PLoS ONE, 2012):
Values belong to the binder of their own block, whether it stands above or below them. Non-standard residues stand in square brackets, D forms with d. No end group written: not given here. pY = N[C@@H](Cc1ccc(OP(=O)(O)O)cc1)C(=O)O; rhodamine = not defined here

Key:
[1] = molecular target: T1, GRB2 SH2 domain (human, UniProt P62993 60-152); test: fluorescence polarisation; saturation binding in solution: rhodamine peptide fixed at 10 nM, protein titrated 0.002-10 uM, 20 min at room temperature; assay buffer 20 mM HEPES, 100 mM KCl, 0.1% Tween-20, 5 mM DTT, pH 7.8; apparent KD; conditions: both partners purified
T1 construct: GRB2, human; source: bacterial expression, purified

[2] = molecular target: T2, SRC SH2 domain (human, UniProt P12931-1 151-248); test: fluorescence polarisation; competition: rhodamine peptide 10 nM, protein at four times its KD, unlabeled competitor peptide in 11 serial 1:3 dilutions; Ki from IC50, one-site model; conditions: both partners purified
T2 construct: SRC, human; also called c-Src; source: bacterial expression, purified

T1 sequence (P62993 60-152): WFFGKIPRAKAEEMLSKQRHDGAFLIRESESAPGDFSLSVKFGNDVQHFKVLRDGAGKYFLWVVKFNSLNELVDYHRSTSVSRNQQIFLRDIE

- Kd [1]: 1.46 µM
B1: ErbB4pY1208 phosphopeptide, rhodamine-labelled (peptide)
peptide: rhodamine-NEPL[pY]LNTFANTD
modifications: reading uncertain
notes: human ErbB4 around Tyr1208; the labelled form stood in the FP saturation assay behind Ki (exp FP); source: synthetic peptide

- Ki [2]: 2.36 µM
B2: ErbB3pY1222 phosphopeptide, unlabeled competitor (peptide)
peptide: EELG[pY]EYMDVGSD
notes: human ErbB3 around Tyr1222; source: synthetic peptide
